From paper PMC12618243 (Nature Structural & Molecular Biology, 2025)

Key:
[1] = tested on: S. cerevisiae ist2;psd1-KO strain (AWY327); assay: Yeast complementation; assay type: cell-based; conditions: 2% galactose, 30 °C, 3–4 days
[2] = target: T1, OSH6 (Saccharomyces cerevisiae, UniProt Q02201); assay: SEC coelution of IST2fl and OSH6; assay type: binding, S. cerevisiae
T1 sequence (Q02201 1-448): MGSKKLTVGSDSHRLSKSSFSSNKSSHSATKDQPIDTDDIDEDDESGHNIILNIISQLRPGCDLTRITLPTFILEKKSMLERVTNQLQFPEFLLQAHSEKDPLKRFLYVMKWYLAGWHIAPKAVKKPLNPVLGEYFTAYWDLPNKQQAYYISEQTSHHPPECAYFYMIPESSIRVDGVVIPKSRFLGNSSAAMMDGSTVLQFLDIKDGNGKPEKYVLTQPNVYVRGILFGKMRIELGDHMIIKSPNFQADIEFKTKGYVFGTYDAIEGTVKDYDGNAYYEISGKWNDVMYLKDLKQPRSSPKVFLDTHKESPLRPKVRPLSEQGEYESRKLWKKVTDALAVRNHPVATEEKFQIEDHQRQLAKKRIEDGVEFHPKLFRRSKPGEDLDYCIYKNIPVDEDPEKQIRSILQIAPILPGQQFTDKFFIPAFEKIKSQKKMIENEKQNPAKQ

[3] = cited from earlier work

B1: IST2: full-length wild-type IST2, 946 residues, S. cerevisiae (protein)
chain: MSQTITSLDPNCVIVFNKTSSANEKSLNVEFKRLNIHSIIEPGHDLQTSYAFIRIHQDNAKPLFSFLQNLDFIESIIPYHDTELSDDLHKLISISKSKILEAPKQYELYNLSNLTNNPKQSLYFAFLQNYIKWLIPFSFFGLSIRFLSNFTYEFNSTYSLFAILWTLSFTAFWLYKYEPFWSDRLSKYSSFSTIEFLQDKQKAQKKASSVIMLKKCCFIPVALLFGAILLSFQLYCFALEIFIKQIYNGPMISILSFLPTILICTFTPVLTVIYNKYFVEPMTKWENHSSVVNAKKSKEAKNFVIIFLSSYVPLLITLFLYLPMGHLLTAEIRTKVFNAFSILARLPTHDSDFIIDTKRYEDQFFYFIVINQLIQFSMENFVPSLVSIAQQKINGPNPNFVKAESEIGKAQLSSSDMKIWSKVKSYQTDPWGATFDLDANFKKLLLQFGYLVMFSTIWPLAPFICLIVNLIVYQVDLRKAVLYSKPEYFPFPIYDKPSSVSNTQKLTVGLWNSVLVMFSILGCVITATLTYMYQSCNIPGVGAHTSIHTNKAWYLANPINHSWINIVLYAVFIEHVSVAIFFLFSSILKSSHDDVANGIVPKHVVNVQNPPKQEVFEKIPSPEFNSNNEKELVQRKGSANEKLHQELGEKQPASSANGYEAHAATHANNDPSSLSSASSPSLSSSSSSSKTGVVKAVDNDTAGSAGKKPLATESTEKRNSLVKVPTVGSYGVAGATLPETIPTSKNYYLRFDEDGKSIRDAKSSAESSNATNNNTLGTESKLLPDGDAVDALSRKIDQIPKIAVTGGENNENTQAKDDAATKTPLIKDANIKPVVNAAVNDNQSKVSVATEQTKKTEVSTKNGPSRSISTKETKDSARPSNNNTTTTTTTDATQPHHHHHHHRHRDAGVKNVTNNSKTTESSSSSSAAKEKPKHKKGLLHKLKKKL
modifications: left off: SBP, N-terminal, state not stated | myc, N-terminal, state not stated
- Growth complementation (in words) [1]: growth deficit can be alleviated
- Coelution as a complex on SEC (in words) [2]: coelute as a complex on size-exclusion chromatography
- Scrambling activity, previous publication (in words) [3]: refuting scrambling activity
